Ho/Con_1a and He/Con_1a data for 16 molecules are collected here from patent publication US20180155451A1 (published 2018).

First the molecules themselves.
B1: GpH7-B3 variant P271_20W/GpL16-k0 (antibody, human IgG1, kappa)
heavy: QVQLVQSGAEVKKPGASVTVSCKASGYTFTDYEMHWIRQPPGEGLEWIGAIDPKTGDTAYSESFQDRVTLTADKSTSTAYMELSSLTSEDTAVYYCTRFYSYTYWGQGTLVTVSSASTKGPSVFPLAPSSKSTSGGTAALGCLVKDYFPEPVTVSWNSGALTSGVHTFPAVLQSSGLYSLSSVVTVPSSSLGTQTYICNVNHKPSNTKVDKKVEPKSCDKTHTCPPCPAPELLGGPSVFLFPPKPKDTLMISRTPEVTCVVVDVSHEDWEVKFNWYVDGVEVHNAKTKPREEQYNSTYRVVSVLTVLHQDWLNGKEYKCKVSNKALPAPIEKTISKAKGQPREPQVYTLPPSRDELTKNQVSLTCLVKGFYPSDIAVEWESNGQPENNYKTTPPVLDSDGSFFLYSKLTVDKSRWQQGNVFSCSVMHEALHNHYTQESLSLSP
light: DIVMTQSPLSLPVTPGEPASISCQASESLVHSNRNTYLHWYLQKPGQSPQLLIYKVSNRFSGVPDRFSGSGSGTDFTLKISRVEAEDVGVYYCSQNTHVPPTFGQGTKVEIERTVAAPSVFIFPPSDEQLKSGTASVVCLLNNFYPREAKVQWKVDNALQSGNSQESVTEQDSKDSTYSLSSTLTLSKADYEKHKVYACEVTHQGLSSPVTKSFNRGEC
notes: homodimerized; also called Ho Ab P271_20W
B2: GpH7-B3 variant Q295_02A/GpL16-k0 (antibody, human IgG1, kappa)
heavy: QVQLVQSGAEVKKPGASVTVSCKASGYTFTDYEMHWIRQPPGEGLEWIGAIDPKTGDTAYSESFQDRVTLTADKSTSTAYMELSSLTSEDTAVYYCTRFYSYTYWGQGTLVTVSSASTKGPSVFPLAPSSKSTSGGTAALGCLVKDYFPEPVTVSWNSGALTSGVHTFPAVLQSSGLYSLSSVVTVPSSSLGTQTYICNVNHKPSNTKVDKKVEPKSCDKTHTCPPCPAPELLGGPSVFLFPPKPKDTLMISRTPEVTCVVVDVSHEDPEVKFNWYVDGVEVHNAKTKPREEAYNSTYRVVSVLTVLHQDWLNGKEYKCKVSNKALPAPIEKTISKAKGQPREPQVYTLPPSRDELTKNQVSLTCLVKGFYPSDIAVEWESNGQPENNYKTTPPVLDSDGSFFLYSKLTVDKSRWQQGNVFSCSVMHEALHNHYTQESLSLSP
light: DIVMTQSPLSLPVTPGEPASISCQASESLVHSNRNTYLHWYLQKPGQSPQLLIYKVSNRFSGVPDRFSGSGSGTDFTLKISRVEAEDVGVYYCSQNTHVPPTFGQGTKVEIERTVAAPSVFIFPPSDEQLKSGTASVVCLLNNFYPREAKVQWKVDNALQSGNSQESVTEQDSKDSTYSLSSTLTLSKADYEKHKVYACEVTHQGLSSPVTKSFNRGEC
notes: homodimerized; also called Ho Ab Q295_02A
B3: GpH7-A5/GpH7-B3 variant E269_04F/GpL16-k0 (antibody, human IgG1, kappa)
heavy 1: not shown
heavy 2: not shown
light: DIVMTQSPLSLPVTPGEPASISCQASESLVHSNRNTYLHWYLQKPGQSPQLLIYKVSNRFSGVPDRFSGSGSGTDFTLKISRVEAEDVGVYYCSQNTHVPPTFGQGTKVEIERTVAAPSVFIFPPSDEQLKSGTASVVCLLNNFYPREAKVQWKVDNALQSGNSQESVTEQDSKDSTYSLSSTLTLSKADYEKHKVYACEVTHQGLSSPVTKSFNRGEC
notes: heterodimerized; also called He Ab E269_04F
B4: GpH7-A5/GpH7-B3 variant A330_09D/GpL16-k0 (antibody, human IgG1, kappa)
heavy 1: not shown
heavy 2: not shown
light: DIVMTQSPLSLPVTPGEPASISCQASESLVHSNRNTYLHWYLQKPGQSPQLLIYKVSNRFSGVPDRFSGSGSGTDFTLKISRVEAEDVGVYYCSQNTHVPPTFGQGTKVEIERTVAAPSVFIFPPSDEQLKSGTASVVCLLNNFYPREAKVQWKVDNALQSGNSQESVTEQDSKDSTYSLSSTLTLSKADYEKHKVYACEVTHQGLSSPVTKSFNRGEC
notes: heterodimerized; also called He Ab A330_09D
B5: GpH7-A5/GpH7-B3 variant A330_14T/GpL16-k0 (antibody, human IgG1, kappa)
heavy 1: not shown
heavy 2: not shown
light: DIVMTQSPLSLPVTPGEPASISCQASESLVHSNRNTYLHWYLQKPGQSPQLLIYKVSNRFSGVPDRFSGSGSGTDFTLKISRVEAEDVGVYYCSQNTHVPPTFGQGTKVEIERTVAAPSVFIFPPSDEQLKSGTASVVCLLNNFYPREAKVQWKVDNALQSGNSQESVTEQDSKDSTYSLSSTLTLSKADYEKHKVYACEVTHQGLSSPVTKSFNRGEC
notes: heterodimerized; also called He Ab A330_14T
B6: GpH7-A5/GpH7-B3 variant E269_01G/GpL16-k0 (antibody, human IgG1, kappa)
heavy 1: not shown
heavy 2: not shown
light: DIVMTQSPLSLPVTPGEPASISCQASESLVHSNRNTYLHWYLQKPGQSPQLLIYKVSNRFSGVPDRFSGSGSGTDFTLKISRVEAEDVGVYYCSQNTHVPPTFGQGTKVEIERTVAAPSVFIFPPSDEQLKSGTASVVCLLNNFYPREAKVQWKVDNALQSGNSQESVTEQDSKDSTYSLSSTLTLSKADYEKHKVYACEVTHQGLSSPVTKSFNRGEC
notes: heterodimerized; also called He Ab E269_01G
B7: GpH7-A5/GpH7-B3 variant A330_11K/GpL16-k0 (antibody, human IgG1, kappa)
heavy 1: not shown
heavy 2: not shown
light: DIVMTQSPLSLPVTPGEPASISCQASESLVHSNRNTYLHWYLQKPGQSPQLLIYKVSNRFSGVPDRFSGSGSGTDFTLKISRVEAEDVGVYYCSQNTHVPPTFGQGTKVEIERTVAAPSVFIFPPSDEQLKSGTASVVCLLNNFYPREAKVQWKVDNALQSGNSQESVTEQDSKDSTYSLSSTLTLSKADYEKHKVYACEVTHQGLSSPVTKSFNRGEC
notes: heterodimerized; also called He Ab A330_11K
B8: GpH7-A5/GpH7-B3 variant A330_05P/GpL16-k0 (antibody, human IgG1, kappa)
heavy 1: not shown
heavy 2: not shown
light: DIVMTQSPLSLPVTPGEPASISCQASESLVHSNRNTYLHWYLQKPGQSPQLLIYKVSNRFSGVPDRFSGSGSGTDFTLKISRVEAEDVGVYYCSQNTHVPPTFGQGTKVEIERTVAAPSVFIFPPSDEQLKSGTASVVCLLNNFYPREAKVQWKVDNALQSGNSQESVTEQDSKDSTYSLSSTLTLSKADYEKHKVYACEVTHQGLSSPVTKSFNRGEC
notes: heterodimerized; also called He Ab A330_05P
B9: GpH7-A5/GpH7-B3 variant A327_09D/GpL16-k0 (antibody, human IgG1, kappa)
heavy 1: not shown
heavy 2: not shown
light: DIVMTQSPLSLPVTPGEPASISCQASESLVHSNRNTYLHWYLQKPGQSPQLLIYKVSNRFSGVPDRFSGSGSGTDFTLKISRVEAEDVGVYYCSQNTHVPPTFGQGTKVEIERTVAAPSVFIFPPSDEQLKSGTASVVCLLNNFYPREAKVQWKVDNALQSGNSQESVTEQDSKDSTYSLSSTLTLSKADYEKHKVYACEVTHQGLSSPVTKSFNRGEC
notes: heterodimerized; also called He Ab A327_09D
B10: GpH7-A5/GpH7-B3 variant A327_07I/GpL16-k0 (antibody, human IgG1, kappa)
heavy 1: not shown
heavy 2: not shown
light: DIVMTQSPLSLPVTPGEPASISCQASESLVHSNRNTYLHWYLQKPGQSPQLLIYKVSNRFSGVPDRFSGSGSGTDFTLKISRVEAEDVGVYYCSQNTHVPPTFGQGTKVEIERTVAAPSVFIFPPSDEQLKSGTASVVCLLNNFYPREAKVQWKVDNALQSGNSQESVTEQDSKDSTYSLSSTLTLSKADYEKHKVYACEVTHQGLSSPVTKSFNRGEC
notes: heterodimerized; also called He Ab A327_07I
B11: GpH7-A5/GpH7-B3 variant A327_13S/GpL16-k0 (antibody, human IgG1, kappa)
heavy 1: not shown
heavy 2: not shown
light: DIVMTQSPLSLPVTPGEPASISCQASESLVHSNRNTYLHWYLQKPGQSPQLLIYKVSNRFSGVPDRFSGSGSGTDFTLKISRVEAEDVGVYYCSQNTHVPPTFGQGTKVEIERTVAAPSVFIFPPSDEQLKSGTASVVCLLNNFYPREAKVQWKVDNALQSGNSQESVTEQDSKDSTYSLSSTLTLSKADYEKHKVYACEVTHQGLSSPVTKSFNRGEC
notes: heterodimerized; also called He Ab A327_13S
B12: GpH7-A5/GpH7-B3 variant A327_06M/GpL16-k0 (antibody, human IgG1, kappa)
heavy 1: not shown
heavy 2: not shown
light: DIVMTQSPLSLPVTPGEPASISCQASESLVHSNRNTYLHWYLQKPGQSPQLLIYKVSNRFSGVPDRFSGSGSGTDFTLKISRVEAEDVGVYYCSQNTHVPPTFGQGTKVEIERTVAAPSVFIFPPSDEQLKSGTASVVCLLNNFYPREAKVQWKVDNALQSGNSQESVTEQDSKDSTYSLSSTLTLSKADYEKHKVYACEVTHQGLSSPVTKSFNRGEC
notes: heterodimerized; also called He Ab A327_06M
B13: GpH7-A5/GpH7-B3 variant A327_10E/GpL16-k0 (antibody, human IgG1, kappa)
heavy 1: not shown
heavy 2: not shown
light: DIVMTQSPLSLPVTPGEPASISCQASESLVHSNRNTYLHWYLQKPGQSPQLLIYKVSNRFSGVPDRFSGSGSGTDFTLKISRVEAEDVGVYYCSQNTHVPPTFGQGTKVEIERTVAAPSVFIFPPSDEQLKSGTASVVCLLNNFYPREAKVQWKVDNALQSGNSQESVTEQDSKDSTYSLSSTLTLSKADYEKHKVYACEVTHQGLSSPVTKSFNRGEC
notes: heterodimerized; also called He Ab A327_10E
B14: GpH7-A5/GpH7-B3 variant A330_16H/GpL16-k0 (antibody, human IgG1, kappa)
heavy 1: not shown
heavy 2: not shown
light: DIVMTQSPLSLPVTPGEPASISCQASESLVHSNRNTYLHWYLQKPGQSPQLLIYKVSNRFSGVPDRFSGSGSGTDFTLKISRVEAEDVGVYYCSQNTHVPPTFGQGTKVEIERTVAAPSVFIFPPSDEQLKSGTASVVCLLNNFYPREAKVQWKVDNALQSGNSQESVTEQDSKDSTYSLSSTLTLSKADYEKHKVYACEVTHQGLSSPVTKSFNRGEC
notes: heterodimerized; also called He Ab A330_16H
B15: GpH7-A5/GpH7-B3 variant A327_03V/GpL16-k0 (antibody, human IgG1, kappa)
heavy 1: not shown
heavy 2: not shown
light: DIVMTQSPLSLPVTPGEPASISCQASESLVHSNRNTYLHWYLQKPGQSPQLLIYKVSNRFSGVPDRFSGSGSGTDFTLKISRVEAEDVGVYYCSQNTHVPPTFGQGTKVEIERTVAAPSVFIFPPSDEQLKSGTASVVCLLNNFYPREAKVQWKVDNALQSGNSQESVTEQDSKDSTYSLSSTLTLSKADYEKHKVYACEVTHQGLSSPVTKSFNRGEC
notes: heterodimerized; also called He Ab A327_03V
B16: GpH7-A5/GpH7-B3 variant A330_08L/GpL16-k0 (antibody, human IgG1, kappa)
heavy 1: not shown
heavy 2: not shown
light: DIVMTQSPLSLPVTPGEPASISCQASESLVHSNRNTYLHWYLQKPGQSPQLLIYKVSNRFSGVPDRFSGSGSGTDFTLKISRVEAEDVGVYYCSQNTHVPPTFGQGTKVEIERTVAAPSVFIFPPSDEQLKSGTASVVCLLNNFYPREAKVQWKVDNALQSGNSQESVTEQDSKDSTYSLSSTLTLSKADYEKHKVYACEVTHQGLSSPVTKSFNRGEC
notes: heterodimerized; also called He Ab A330_08L; GpH7-A5/GpH7-B3-20-08L/GpL16-k0

T1 sequence (P12314 16-292): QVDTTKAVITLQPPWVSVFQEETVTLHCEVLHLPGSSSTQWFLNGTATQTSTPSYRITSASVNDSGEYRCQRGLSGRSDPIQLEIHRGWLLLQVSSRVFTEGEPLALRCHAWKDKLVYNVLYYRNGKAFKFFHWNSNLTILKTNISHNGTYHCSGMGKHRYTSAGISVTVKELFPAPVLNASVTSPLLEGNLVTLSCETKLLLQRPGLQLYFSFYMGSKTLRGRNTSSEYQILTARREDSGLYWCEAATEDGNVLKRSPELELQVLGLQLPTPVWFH

The first experiment concerns the target T1, FcγRIa (human, UniProt P12314 16-292).
T1 construct: extracellular domain; also called FcgRI; CD64
The experiment is described as follows: SPR; vs GpH7-B3/GpL16-k0=100.
On to B1, for which the Ho/Con_1a is 102 % of control.

As for B2, the Ho/Con_1a was 104 % of control.

The next experiment concerns the target T1, FcγRIa. Briefly: SPR; vs GpH7-A5/GpH7-B3/GpL16-k0=100.
On to B3, for which the He/Con_1a is 103 % of control.

As to B4, the He/Con_1a was 109 % of control.

In the case of B5, the He/Con_1a is 105 % of control.

For B6, the He/Con_1a was 104 % of control.

With B7, the He/Con_1a was 103 % of control.

Turning to B8, the He/Con_1a is 101 % of control.

As for B9, the He/Con_1a was 103 % of control.

Turning to B10, the He/Con_1a was 104 % of control.

As to B11, the He/Con_1a is 102 % of control.

In the case of B12, the He/Con_1a was 103 % of control.

Consider B13, for which the He/Con_1a is 103 % of control.

B14: the He/Con_1a is 106 % of control.

B15: the He/Con_1a was 103 % of control.

Consider B16, for which the He/Con_1a was 107 % of control.
